According to patent publication US20090180995A1, “NOVEL ANTICOAGULANT POLYPEPTIDES AND COMPLEX” (National University of Singapore, priority 2005, published 2009):
Entries after “also recorded” stand apart in the source; their conditions may differ.

B1: hemextin B (protein)
chain: LKCKNKVVPFLKCKNKVVPFLCYKMTLKKVPKIPIKRGCTDACPKSSLLVNVMCCKTDKCN
B2: hemextin A (protein)
chain: LKCKNKLVPFLSKTCPEGKNLCYKMTMLKMPKIPIKRGCTDACPKSSLLVKVVCCNKDKCN
B3: hemextin AB complex: synergistic 1:1 tetrameric complex of hemextin A and hemextin B, reconstituted from equimolar proteins (protein)
chain 1: B2 chain
chain 2: B1 chain

How the values were obtained:
plasma = test: Prothrombin time; assay type: biochemical, human; details: for anticoagulant activity, prothrombin time: human plasma, 37° C.; for anticoagulant activity in buffers of high ionic strength: 50 mM Tris-HCl (pH 7.4) with NaCl 35 mM to 150 mM
Method: Briefly, prothrombin times may be measured according to the method of Quick (see Quick A J. (1935) J. Biol. Chem. 109, 73-74). 100 μl of 50 mM of Tris-HCl buffer (pH 7.4), 100 μl of plasma and 50 μL of the protein under investigation are to be incubated for 2 min at 37° C. Clotting is initiated by the addition of 150 μL of thromboplastin with calcium reagent.
Anticoagulant activity—The anticoagulant activities of H. haemachatus venom and its fractions was determined by four coagulation tests using a BBL fibrometer: • 1. Recalcification time: The recalcification times were determined according to the method of Langdell et al. (25). 50 mM Tris-HCl buffer (pH 7.4) (100 μl), plasma (100 μl) and various concentrations of venom or its fraction (50 μl) were preincubated for 2 min at 37° C. Clotting was initiated by the addition of 50 μl of 50 mM CaCl2. • 2. Prothrombin time: The prothrombin times were measured according to the method of Quick (26). 100 μl of 50 mM Tris-HCl buffer (pH 7.4), 100 μl of plasma and 50 μl of venom or its fractions were preincubated for 2 min at 37° C. Clotting was initiated by the addition of thromboplastin with calcium reagent (150 μl) which can be purchased from Sigma (St. Louis, Mo., USA). • For studying the role of electrostatic interactions, the anticoagulant activity of a specific concentration of hemextin A (4.4 μM), hemextin B (4.4 μM) and hemextin AB complex (0.11 μM) was monitored in 50 mM Tris-HCl (pH 7.4) containing various concentrations of NaCl (35 mM to 150 mM). • For studying the role of hydrophobic interactions, the anticoagulant activity of a specific concentration of hemextin A (4.4 μM), hemextin B (4.4 μM) and hemextin AB complex (0.11 μM) was monitored in 50 mM Tris-HCl (pH 7.4) containing various concentrations of glycerol (125 mM to 250 mM). • 2. Stypven time: Stypven time measurements were determined according to the method of Hougie (27). Plasma (100 μl), 50 mM Tris-HCl buffer (pH 7.4) (100 μl) and RVV (0.01 μg in 100 μl) and individual proteins or the reconstituted complex (50 μl) were preincubated for 2 min at 37° C. Clotting was initiated by the addition of 50 mM CaCl2 (50 μl). • 3. Thrombin time: Thrombin time was determined according to the method of Jim (28). Individual proteins or the reconstituted complex were incubated with 100 μl of plasma and 100 μl of 50 mM Tris-HCl buffer (pH 7.4) for 2 min at 37° C. in a total volume 250 μl. Clotting was initiated by the addition of standard thrombin reagent (0.01 NIH units in 50 μl).

Factor XIa = Factor XIa (Homo sapiens, UniProt P03951); test: Serine protease specificity, FXIa; assay type: biochemical; details: FXIa (0.34 nM)
Method: (§1) Serine protease specificity—The selectivity profile of anticoagulant proteins and their complex was examined against 12 serine proteases—procoagulant serine proteases (FIXa, FXa, FXIa, FXIIa, plasma kallikrein and thrombin), anticoagulant serine protease (APC), fibrinolytic serine proteases (urokinase, t-PA and plasmin) and classical serine proteases (trypsin and chymotrypsin). Various concentrations of purified hemextin A/hemextin B and reconstituted hemextin AB complex were preincubated with each of the enzymes (Table 1) for a period of five minutes at a temperature of 37° C., followed by the addition of appropriate chromogenic substrate.
(§2) For studies with FXIa, kallikrein and urokinase, the appropriate substrates were determined prior to their screening against the inhibitors. For FXIa, the Vmax for the amidolytic activity corresponding to the chromogenic substrates S-2266, S-2302 and S-2366 was determined. S-2302 was the substrate with the highest Vmax and thus was used in the screening studies. Similar studies with kallikrein and urokinase were carried out with substrates S-2266, S-2302 and S-2288 for kallikrein and S-2444 and S-2484 for urokinase. In a total volume of 200 μl in the individual wells of the microtiter plate, final concentrations of FVIIa (300 nM)/S-2288, FVIIa-sTF (30 nM)/S-2288, FXa (0.75 nM)/S-2765, α-thrombin (0.66 nM)/S-2238, plasmin (2 nM)/S-2366, FIXa (3 μM)/spectrozyme®fIXa, FXIa (0.34 nM)/S-2366, FXIIa (0.4 nM)/S-2302, recombinant tissue plasminogen activator (80 nM)/S-2288, activated protein C (0.34 nM)/S-2366, urokinase/S-2444, plasma kallikrein (0.4 nM)/S-2302, trypsin (2.17 nM)/S-2222 and chymotrypsin (0.4 nM)/S-2586 were measured. The kinetic rate of substrate hydrolysis (mOD/min) was measured over 5 min.

Thrombin = biological target: T1, Thrombin (Homo sapiens, UniProt P00734); test: Serine protease specificity, thrombin; assay type: biochemical; details: α-thrombin (0.66 nM)/S-2238
T1 construct: FXa performs a proteolytic cleavage of prothrombin to thrombin
Method: as §1, §2

t-PA = t-PA (Homo sapiens, UniProt P00750); test: Serine protease specificity, t-PA; assay type: biochemical; details: recombinant tissue plasminogen activator (80 nM)/S-2288
Method: as §1, §2

APC = APC (Homo sapiens, UniProt P04070); test: Serine protease specificity, APC; assay type: biochemical; details: activated protein C (0.34 nM)/S-2366
Method: as §1, §2

Urokinase = Urokinase (Homo sapiens, UniProt P00749); test: Serine protease specificity, urokinase; assay type: biochemical; details: urokinase/S-2444
Method: as §1, §2

Plasmin = Plasmin (Homo sapiens, UniProt P00747); test: Serine protease specificity, plasmin; assay type: biochemical; details: plasmin (2 nM)
Method: as §1, §2

Chymotrypsin = test: Serine protease specificity, chymotrypsin; assay type: biochemical; details: chymotrypsin (0.4 nM)/S-2586
Method: as §1, §2

Trypsin = test: Serine protease specificity, trypsin; assay type: biochemical; details: trypsin (2.17 nM)/S-2222
Method: as §1, §2

Chain of t-PA (P00750 36-562, species assumed): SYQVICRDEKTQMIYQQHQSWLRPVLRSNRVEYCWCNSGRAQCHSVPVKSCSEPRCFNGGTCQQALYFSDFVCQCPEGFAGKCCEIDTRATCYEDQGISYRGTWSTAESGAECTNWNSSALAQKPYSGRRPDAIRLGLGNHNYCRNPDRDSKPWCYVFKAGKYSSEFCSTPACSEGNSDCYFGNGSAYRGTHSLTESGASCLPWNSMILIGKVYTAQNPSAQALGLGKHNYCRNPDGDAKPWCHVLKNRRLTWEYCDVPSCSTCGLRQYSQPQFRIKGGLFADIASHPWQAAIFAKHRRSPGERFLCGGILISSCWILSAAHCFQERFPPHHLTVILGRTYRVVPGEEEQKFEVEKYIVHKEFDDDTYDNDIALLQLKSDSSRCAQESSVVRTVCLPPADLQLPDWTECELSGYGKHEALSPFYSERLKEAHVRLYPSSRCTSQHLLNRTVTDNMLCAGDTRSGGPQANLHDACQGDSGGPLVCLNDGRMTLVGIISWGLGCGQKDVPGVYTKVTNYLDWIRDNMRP
Chain of Plasmin (P00747 581-810 limits assumed, species assumed): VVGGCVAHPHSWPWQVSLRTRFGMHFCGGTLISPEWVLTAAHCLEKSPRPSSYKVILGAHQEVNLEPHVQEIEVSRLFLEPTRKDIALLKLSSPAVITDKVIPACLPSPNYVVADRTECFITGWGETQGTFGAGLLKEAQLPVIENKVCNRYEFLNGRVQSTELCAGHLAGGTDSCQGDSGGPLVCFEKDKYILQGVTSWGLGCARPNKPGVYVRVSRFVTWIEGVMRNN
Chain of Plasmin (P00747 97-580 limits assumed, species assumed): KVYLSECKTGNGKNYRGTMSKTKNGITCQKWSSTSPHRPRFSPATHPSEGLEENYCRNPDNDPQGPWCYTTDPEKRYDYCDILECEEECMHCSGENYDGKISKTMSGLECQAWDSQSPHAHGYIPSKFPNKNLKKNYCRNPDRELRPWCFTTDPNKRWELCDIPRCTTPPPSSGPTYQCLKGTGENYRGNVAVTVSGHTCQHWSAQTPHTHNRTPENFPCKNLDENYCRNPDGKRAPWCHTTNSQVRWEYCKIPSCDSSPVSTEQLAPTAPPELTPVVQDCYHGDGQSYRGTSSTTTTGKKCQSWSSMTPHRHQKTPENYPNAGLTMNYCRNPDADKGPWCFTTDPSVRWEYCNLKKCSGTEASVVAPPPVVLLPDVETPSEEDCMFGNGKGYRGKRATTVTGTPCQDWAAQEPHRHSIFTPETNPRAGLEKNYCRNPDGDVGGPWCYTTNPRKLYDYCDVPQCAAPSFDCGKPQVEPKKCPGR
Chain of Factor XIa (P03951 388-625 limits assumed): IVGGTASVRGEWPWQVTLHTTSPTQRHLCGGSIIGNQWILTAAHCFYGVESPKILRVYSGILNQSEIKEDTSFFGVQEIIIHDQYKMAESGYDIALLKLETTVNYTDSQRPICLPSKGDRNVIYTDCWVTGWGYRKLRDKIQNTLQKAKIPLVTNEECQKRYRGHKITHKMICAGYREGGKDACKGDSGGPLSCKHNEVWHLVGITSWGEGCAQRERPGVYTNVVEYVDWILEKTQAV
Chain of Factor XIa (P03951 19-387 limits assumed): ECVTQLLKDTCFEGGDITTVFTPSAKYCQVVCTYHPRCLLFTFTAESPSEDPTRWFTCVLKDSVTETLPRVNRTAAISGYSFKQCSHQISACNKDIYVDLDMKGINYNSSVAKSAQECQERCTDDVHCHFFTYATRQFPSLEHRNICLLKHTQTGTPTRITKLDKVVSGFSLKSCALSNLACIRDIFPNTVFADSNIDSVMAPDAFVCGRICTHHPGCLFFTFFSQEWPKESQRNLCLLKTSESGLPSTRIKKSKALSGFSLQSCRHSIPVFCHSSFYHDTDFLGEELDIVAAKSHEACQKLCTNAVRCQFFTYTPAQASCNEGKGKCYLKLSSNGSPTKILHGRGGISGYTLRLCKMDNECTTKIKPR
Chain of APC (P04070 43-197 limits assumed): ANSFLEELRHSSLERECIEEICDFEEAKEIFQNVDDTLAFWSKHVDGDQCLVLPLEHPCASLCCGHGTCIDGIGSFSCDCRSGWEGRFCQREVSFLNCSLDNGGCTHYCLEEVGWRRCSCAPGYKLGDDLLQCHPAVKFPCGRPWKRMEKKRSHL
Chain of APC (P04070 212-461 limits assumed): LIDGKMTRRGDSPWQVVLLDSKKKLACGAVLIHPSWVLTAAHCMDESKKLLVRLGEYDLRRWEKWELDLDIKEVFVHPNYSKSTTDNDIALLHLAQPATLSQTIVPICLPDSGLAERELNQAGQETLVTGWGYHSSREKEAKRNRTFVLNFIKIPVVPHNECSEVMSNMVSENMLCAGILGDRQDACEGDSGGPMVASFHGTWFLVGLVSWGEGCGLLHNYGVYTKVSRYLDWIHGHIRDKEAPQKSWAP

| Molecule | anticoagulant activity of hemextin A with increasing hemextin B concentrations (plasma; hemextin A constant at 4.4 μM) | anticoagulant activity, prothrombin time (plasma) | Observed Effect, Factor XIa amidolytic activity (Factor XIa) | Observed Effect, thrombin amidolytic activity (Thrombin) | Observed Effect, t-PA amidolytic activity (t-PA) | Observed Effect, APC amidolytic activity (APC) | Observed Effect, urokinase amidolytic activity (Urokinase) | Observed Effect, plasmin amidolytic activity (Plasmin) | Observed Effect, chymotrypsin amidolytic activity (Chymotrypsin) | Observed Effect, trypsin amidolytic activity (Trypsin) | anticoagulant activity in buffers of high ionic strength (plasma) | anticoagulant activity in buffers containing glycerol (plasma; 50 mM Tris-HCl (pH 7.4) with glycerol 125 mM to 250 mM) | anticoagulant activity at 125 mM glycerol (plasma; 125 mM glycerol) | anticoagulant activity at 250 mM glycerol (plasma; 250 mM glycerol) | anticoagulant activity, prothrombin time (plasma; listed as equimolar mixture of hemextin A and B) |
| --- | --- | --- | --- | --- | --- | --- | --- | --- | --- | --- | --- | --- | --- | --- | --- |
| B1 | increases with the increasing concentrations of hemextin B until the ratio reaches 1:1 | did not show any significant effect on clotting time; also recorded: did not prolong clotting times; also recorded: no anticoagulant activity | no inhibitory activity | no inhibitory activity | no inhibitory activity | no inhibitory activity | no inhibitory activity | no inhibitory activity | no inhibitory activity | no inhibitory activity |  |  |  |  |  |
| B2 |  | mild anticoagulant activity | no inhibitory activity | no inhibitory activity | no inhibitory activity | no inhibitory activity | no inhibitory activity | no inhibitory activity | no inhibitory activity | no inhibitory activity | did not affect the anticoagulant activity |  |  |  |  |
| B3 |  | potent anticoagulant activity | no inhibitory activity | no inhibitory activity | no inhibitory activity | no inhibitory activity | no inhibitory activity | no inhibitory activity | no inhibitory activity | no inhibitory activity | decreased with the increase in ionic strength up to 100 mM NaCl | decreased with the increase in glycerol concentration | no decrease in the anticoagulant activity | higher than that of anticoagulant effect of hemextin A alone | more potent anticoagulant activity |
